According to US20070292411A1 (Human Genome Sciences, published 2007):

B1: monoclonal antibody 7.1.3 (antibody, V domains shown)
VH: QVQLVQSGAEVKKPGASVKVSCKASGYTFTNYDINWVRQAPGQGLEWMGISAYTGNTNYAQKLQGRVTMTTDTSTSTAYMELRSLRSDDTAVYYCVRDYHDSNGYYYFDYWGQGTLVTVS
VL: DIQMIQSPLSLPVIPGEPASMSCRSSRSLLHSNGNNYLEWYLQKPGQSPQLLIYLGSNRASGVPDRFSGSGSGTDFTLKISRVEAEDVGIYYCMQGLQLPWTFGGTKVIKR
B2: TR4-Fc fusion protein (Fc fusion)
chain: ATIKLHDQSIGTQQWEHSPLGELCPPGSHRSERPGACNRCTEGVGYTNASNNLFACLPCTACKSDEEERSPCTTTRNTACQCKPGTFRNDNSAEMCRKCSTGCPRGMVKVKDCTPWSDIECVHKESGNGHNI
notes: not shown: Fc region

Legend:
TR4-Fc fusion protein [1] = molecular target: B2; test: competition ELISA, inhibition of biotinylated TRAIL binding to captured TR4-Fc; assay 2
Procedure: (§1) Goat anti-human Fc was diluted to 0.1 micrograms/ml in coating buffer. The Immulon 4 microplate was coated with 100 microliters per well of the Goat anti-human Fc solution and incubated overnight at 4° C. The coating solution was decanted from the plate, and blocking solution was dispensed at 200 microliters per well. The plate was incubated at room temperature for 1 hour. After the 1 hour incubation period, the blocking solution was decanted from the plate and 1 microgram/mL of TR4-Fc was dispensed at 100 microliters/well and incubated for 2 hours at room temperature. After the incubation, the plate was washed five times manually using a Wheaton manifold.
(§2) Hybridoma supernatants were (previously) prepared in a low binding dilution plate using diluent. The supernatants were prepared in duplicate and were diluted from the stock concentration with 2.5 fold dilutions for the 7 subsequent wells. If a purified form of the antibody was available, the starting concentration was 5 micrograms/mL. The positive control (TR4-Fc) was diluted from 5 micrograms/mL. 100 microliters was transferred into the ELISA plate and pre-incubated for 30 minutes at room temperature. […]
(§3) After the one-hour incubation, the plate was decanted and washed with PBST five times and blotted. […] The plate was immediately read at 450 nm using the spectrometer from Molecular Devices.

TR4-Fc fusion protein [2] = molecular target: B2; test: competition ELISA, inhibition of biotinylated TRAIL binding to captured TR4-Fc; assay 1
Procedure: as §1, §2, §3

Biotinylated TRAIL [3] = molecular target: T1, Biotinylated TRAIL (Homo sapiens (Human), UniProt P50591 114-281, limits assumed, biotinylated (sites not given)); test: competition ELISA, soluble TR4 (TR4-Fc positive control) competing with captured TR4-Fc for biotinylated TRAIL; assay 1
Procedure: as §1, §2, §3

Biotinylated TRAIL [4] = molecular target: T1, Biotinylated TRAIL; test: competition ELISA, soluble TR4 (TR4-Fc positive control) competing with captured TR4-Fc for biotinylated TRAIL; assay 2
Procedure: as §1, §2, §3

T1 sequence (P50591 114-281 limits assumed): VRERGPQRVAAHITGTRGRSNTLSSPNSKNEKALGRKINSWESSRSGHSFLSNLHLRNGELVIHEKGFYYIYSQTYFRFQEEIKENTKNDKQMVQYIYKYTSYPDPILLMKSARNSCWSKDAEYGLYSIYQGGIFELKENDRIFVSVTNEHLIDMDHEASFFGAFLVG

| IC50 (TR4-Fc fusion protein [1]) [µg/mL] | IC50 (TR4-Fc fusion protein [2]) [µg/mL] | IC50 (Biotinylated TRAIL [3]) [µg/mL] | IC50 (Biotinylated TRAIL [4]) [µg/mL] | Binder |
| --- | --- | --- | --- | --- |
| 0.068 | 0.152 | – | – | B1 |
| – | – | 0.491 | 0.284 | B2 |
